Tests used:
Experiment in all cases: western blot of E. coli lysate supernatant
S2p2-2(서열 686~1144) = biological target: T1, S2p2-2(서열 686~1144) (SARS-CoV-2, UniProt P0DTC2 686-1144)
T1 construct: range 686-1144

His-S2p2(서열 686~1207) = biological target: T2, His-S2p2(서열 686~1207) (SARS-CoV-2, UniProt P0DTC2 686-1207)
T2 construct: range 686-1207

[1] = biological target: T3, His-S2p2-1(서열 686~1177 아미노산) (SARS-CoV-2, UniProt P0DTC2 686-1177)
T3 construct: range 686-1177

Measured: binding result

B1: 항-스파이크2(Spike2, S2) 단일클론 항체 4A5 (antibody, V domains shown)
VH: QVKLEQSGPGILQPSQTLSLTCSFSGFSLSTSGMGVSWIRQSSGKGLEWLTHIYWDDDKRYNPSLKSRLTISKDTSRNQVFLKITSVDTADTATYYCARRRMITGLYYAMDYWGQGTSVTVSS
VL: DIVMTQSTLSLPVSFGDQVSISCRSSQSLANSYGITYLSWYLHKPGQSPQLLIYGISNRFSGVPDRFSGSGSGTDFTLKISTIKPEDLGMYYCLQGTHQPWTFGGGTKLEIKR
notes: also called 4A5 항체; 항-S2 항체 4A5
binds: S2p2-2(서열 686~1144) | His-S2p2(서열 686~1207) | [1]

— patent KR20230038028A (dated 2023)
